Data from patent US20070258982A1 (Pfizer, published 2007).
Numbering of substitutions follows the chain as printed.

T1: IL-26 (human, UniProt Q9NPH9)
T1 construct: also called human IL-26
T1 sequence (cytokine, looked up): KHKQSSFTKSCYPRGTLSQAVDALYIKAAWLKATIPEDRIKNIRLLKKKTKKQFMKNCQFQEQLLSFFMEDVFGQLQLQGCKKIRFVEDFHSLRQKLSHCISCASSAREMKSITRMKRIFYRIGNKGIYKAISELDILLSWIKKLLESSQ

T2: human IL-22 (human, UniProt Q9GZX6 34-179)
T2 sequence: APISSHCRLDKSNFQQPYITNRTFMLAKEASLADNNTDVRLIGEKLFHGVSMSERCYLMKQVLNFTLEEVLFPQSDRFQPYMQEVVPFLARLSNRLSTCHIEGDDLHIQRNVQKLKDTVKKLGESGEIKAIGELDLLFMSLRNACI

B1: 087B03 IgG (germlined) (antibody, V domains shown)
VH: EVQLVESGGGVVRPGGSLRLSCAASGFTFDDYGMNWVRQAPGKGLEWVSGVNWNGGTRDYAASVKGRFTISRDNAKNSLYLQMNSLRAEDTALYHCARGWYSGAAWNMGYWGRGTLVTVSS
VL: QAALTQPASVSGSPGQSITISCTGASGDVGAYNFVSWYQQHPGKAPKLIIYDVNKRPSGVSNRFSGSKSGNTASLTISGLQAEDEADYYCSSYTSTFSVVFGGGTKLTVLG
B2: 166B06 IgG (germlined) (antibody, V domains shown)
VH: QVQLVQSGAEVKKPGASVKVSCKASGYTFSDYYIHWVRQAPGQGLEWMGWVNPDTGGTRYAQKFQGRVTMTRDMSISTAYMELSRLRSDDTAVYYCARDLTGFDPFDIWGQGTLVTVSS
VL: SSVLTQPPSVSVAPGKTARITCGGNNFRNKRVHWYQQKPGQAPVLVIYYDSDRPSGIPERFSGSRSGNTATLTISRVEAGDEADYYCQVWDLFNDNGVFGGGTKLTVLG
B3: 375G06 scFv (non-germlined) (scFv)
scFv: EVQLVQSGAEVKKPGASVKVSCQASGYTFSDYYIHWVRQTPGQGFEWMGWVNPDTGGTRYAQKFQGWVTMTRDMSNTTAYMELPRLRDDDTAVYYCARDLTGYDYYDRWGQGTLVTVSSGGGGSGGGGSGGGGGGSGGGGGGSGGGGSAQSVLTQPPSMSVAPGKTATITCGGNNFRNKRVHWYQQRPGQAPVLVIYYDSDRPSGIPERFSGSRSGNTATLTISRVEAGDEADFYCQVWDFLADEAMFGGGTKLTVLGAAAH
B4: 166G05 scFv (non-germlined) (scFv)
scFv: EVQLVQSGAEVKKPGASVKVSCQASGYTFSDYYIHWVRQTPGQGFEWMGWVNPDTGGTRYAQKFQGWVTMTRDMSNTTAYMELPRLRDDDTAVYYCARDLTGFDPFDIWGQGTLVTVSSGGGGSGGGGSGGGGSAQSVLTQPPSVSVAPGKTATITCGGNNFRNKRVHWYQQRPGQAPVLVIYYDSDRPSGIPERFSGSRSGNTATLTISRVEAGDEADFYCQVWDFLTDSGSFGGGTKLTVLGAAAH
B5: 166B06 scFv (non-germlined) (scFv)
scFv: B4 scFv with G123S, F227L, L228F, T229N, S231N, S233V
B6: 368D04 scFv (non-germlined) (scFv)
scFv: EVQLVESGGGVVRPGGSLRLSCAASGFTFDDYGMNWVRQAPGKGLEWVSGVNWNGGTRDYAASVKGRFTISRDNAKNSLYLQMNSLRAEDTALYYCARGWYSGAAWNMGYWGRGTLVTVSSGGGGSGGGGSGGSGGGSGGGGGGSGGGGSAQAVLTQPSSVSGSPGQSITISCTGASGDVGAYNFVSWYQQHPGKTPKLIIYDVNKRPSGVSNRFSGSKSGNTASLTISGLQAEDESDYYCASLVSDFSVVFGGGTKVTVLGAAAH
B7: 062G05 scFv (non-germlined) (scFv)
scFv: QVQLVESGAEVKKPGASVKVSCKASGYTFTSYGISWVRQAPGQGLEWMGWISAYTGNTNYAQKFQGRVTMTTDTSTSTAYMELRSLRSDDTAVYYCARDRGYYDAFDIWGQGTLVTVSSGGGGSGGGGSGGGGSDIQMTQSPSTLSASIGDRVTITCRASEGIYHWLAWYQQKPGKAPKLLIYKASSLASGAPSRFSGSGFGTDFTLTISSLQPDDFATYYCQQMGEWKAAFGGGTKLEIKRAAAH
B8: 062A09 scFv (non-germlined) (scFv)
scFv: B7 scFv with I51V, S85G, F106Y, W228Y, K229N, A231T, F232I
B9: 087B03 scFv (non-germlined) (scFv)
scFv: EVQLVESGGGVVRPGGSLRLSCAASGFTFDDYGMNWVRQAPGKGLEWVSGVNWNGGTRDYAASVKGRFTISRDNAKNSLYLQMNSLRAEDTALYYCARGWYSGAAWNMGYWGRGTLVTVSSGGGGSGGGGSGGGGSAQAVLTQPSSVSGSPGQSITISCTGASGDVGAYNFVSWYQQHPGKTPKLIIYDVNKRPSGVSNRFSGSKSSNTASLTISGLQAEDESDYYCSSYTSTFSVVFGGGTKVTVLGAAAH
B10: 376B10 scFv (non-germlined) (scFv)
scFv: EVQLVQSGAEVKKPGASVKVSCQASGYTFSDYYIHWVRQTPGQGFEWMGWVNPDTGGTRYAQKFQGWVTMTRDMSNTTAYMELPGLRDDDTAVYYCARDLTGYDQYTAWGQGTLVTVSSGGGGSGGGGSGGGGSAQSVLTQPPSVSVAPGKTATITCGGNNFRNKRVHWYQQRPGQAPVLVIYYDSDRPSGIPERFSGSRSGNTATLTISRVEAGDEADFYCSTFDPFTDRPLFGGGTKLTVLGAAAH
B11: 367D04 scFv (non-germlined) (scFv)
scFv: EVQLVESGGGVVRPGGSLRLSCAASGFTFDDYGMNWVRQAPGKGLEWVSGVNWNGGTRDYAASVKGRFTISRDNAKNSLYLQMNSLRAEDTALYYCARGWYSGSPWSLGHWGRGTLVTVSSGGGGSGGGGSGGSGGGSGGSGGGSSGGGSGGGGSAQAVLTQPSSVSGSPGQSVTISCTGASGDVGAYNFVSWYQQHPGKTPKLIIYDVNKRPSGVSNRFSGSKSGNTASLTISRLQAEDESDYYCSSYTSRYTTEFGGGTKVTVLGAAAH
B12: 062A09 IgG (non-germlined) (antibody, V domains shown)
VH: QVQLVESGAEVKKPGASVKVSCKASGYTFTSYGISWVRQAPGQGLEWMGWVSAYTGNTNYAQKFQGRVTMTTDTSTSTAYMELRGLRSDDTAVYYCARDRGYYDAFDIWGQGTLVTVSS
VL: DIQMTQSPSTLSASIGDRVTITCRASEGIYHWLAWYQQKPGKAPKLLIYKASSLASGAPSRFSGSGFGTDFTLTISSLQPDDFATYYCQQMGEYNATIGGGTKLEIKR
B13: 356A11 scFv (non-germlined) (scFv)
scFv: QVQLVQSGAEVKKPGASVKVSCKASGYTFTNYYMHWVRQAPGQGLEWVGWINPYTGSAFYAQKFRGRVTMTRDTSINTAYMELSRLGSDDTAVYYCAREPEKFDSDDSDVWGRGTMVTVSGGGGSSGGGGSGGSGSAQAVLTPPSVSGAPGQRVTISCTGSSSNIGAGYGVHWYQQLPGTAPKLIIYGDSSRPSGVPDRFSGSKSGTSASLAITGLQAEDEADYYCQSYDNSLSGYVFGTGTQLTVLSA
B14: 355E04 scFv (non-germlined) (scFv)
scFv: QVQLVQSGAEVKKPGASVKVSCKASGYTFTHYYMHWVRQAPGQGLEWVGWINPYTGGAFYAQKFQGRVTMTRDTSINTAYMELSRLGSDDTAVYYCAREPEKFDSPNAEIWGRGTMVTISSEGGGSGGGGSGGSGSAQAVLTQPSSVSGAPGQRVTISCTGSSSNIGAGYGVHWYQQLPGTAPKLLIYGNSNRPSGVPDRFSGSKSGTSASLAITGLQAEDEADYYCQSYDSSLSGYVFGTGTQLTVLSA
B15: 355B06 scFv (non-germlined) (scFv)
scFv: EVQLVQSGAEVKKPGASVKVSCQASGYTFTDYYMHWVRQAPGQGLEWVGWINPYTGSAFYAQKFRGRATMTRNTSINTAYMELSRLGSDDTAVYYCAREPEKFGESSGQLWGRGTMVTISSGGGGSGGGGSGGSGSAQAVLTQPSSVSGAPGQRVTISCTGSSSNIGPGYGVHWYQQLPGTAPKLLIYGDSNRPSGVPDRFSGSKSGTSASLAITGLQAEDEADYYCQSYDSGLSGYVFGTGTQLTVLSA
B16: 166B06 IgG (non-germlined) (antibody, V domains shown)
VH: B2 VH with Q1E, K23Q, A40T, L45F, R67W, I76N, S77T, S84P, S88D
VL: B2 VL with S1Q, R19T, K38R, Y85F
B17: 166G05 IgG (non-germlined) (antibody, V domains shown)
VH: B2 VH with Q1E, K23Q, A40T, L45F, R67W, I76N, S77T, S84P, S88D
VL: B2 VL with S1Q, R19T, K38R, Y85F, L92F, F93L, N94T, N96S, V98S
B18: 097D09 scFv (non-germlined) (scFv)
scFv: EVQLVESGGGLVTPGGSLRLSCAASGFTFSDYYMSWVRQAPGRGLEWVSAISGSGGSTYYADSVKGRITISRDNAKNSLYLQMSSLRSEDTAVYYCARGLWVWDPLDYWGRGTLVTVSSGGGGSGGGGSGGGGSDIQMTQSPSTLSASIGDRVTITCRASEGIYHWLAWYQQKPGKAPKLLIYKASSLASGAPSRFSGSGFGTDFTLTISSLQPDDFATYYCQQYSEFAWTFGGGTKLEIKRAAAH
B19: 354A08 scFv (non-germlined) (scFv)
scFv: QVQLVQSGAEKKPGASVKVSCKASGYTFTDYYMHWVRQAPGQGLEWVGWINPYTGGAFYAQKFRGRVTMTRDTSINTAYMELSRLGSDDTAVYYCAREPERFGDSTGQVWGRGTMVTVSSGGGGSGGGGSGGSRSAQAVLTQPSSVSGAPRQRVTISCTGSSSNIGAGYGVHWYQQLPGTAPKLLIYGNSNRPSGVPDRFSGSKSGTSASLAITGLQAEDEADYYCYHWDKEQSGYVFGTGTQLTVLSA

Biological target: T1, IL-26
Experiment: ELISA: plate coated with 1 µg/ml antigen, IgG added at 1 µg/ml, HRP goat anti-human IgG, A450
Experimental: Cross species reactivity of germlined and non-germlined optimized antibodies were determined as follows: ELISA plates (Costar, Cat. #3590) were coated overnight with 1 μg/ml of rat, mouse, or human IL-22 or human IL-26 in PBS buffer. Plates were washed with PBST buffer (0.05% Tween20 in PBS) 3 times, then blocked with 1% BSA (Sigma A8918)/PBST for 1 hr at RT. Antibodies were added at 1 μg/ml, incubated 1 hr at 25° C. […] The plates were incubated for 1 hour at 25° C., then washed with PBST, and developed with TMB (KPL, Cat. #50-76-04). Reaction was stopped with 0.18 M H₂SO₄ Plates were read at OD 450 nm.

binding result | Binder
no binding (tested: 1 µg/ml) | B1
no binding (tested: 1 µg/ml) | B2

Biological target: T2, human IL-22
Experiment: cell-based or functional assay

IC50 of scFv (pM) in BaF3-IL-22 proliferation assay | IC50 of IgG (pM) in BaF3-IL-22 proliferation assay | Binder
118 pM |  | B3
204 pM |  | B4
460 pM |  | B5
186 pM |  | B6
182 pM |  | B7
267 pM |  | B8
212 pM |  | B9
104 pM |  | B10
160 pM |  | B11
 | 83 pM | B12
124 pM |  | B13
192 pM |  | B14
183 pM |  | B15
 | 71 pM | B16
 | 97 pM | B17
298 pM |  | B18
219 pM |  | B19

Biological target: T3, BSA (bovine, UniProt P02769)
T3 construct: also called bovine serum albumin
T3 sequence (P02769 25-607 limits assumed): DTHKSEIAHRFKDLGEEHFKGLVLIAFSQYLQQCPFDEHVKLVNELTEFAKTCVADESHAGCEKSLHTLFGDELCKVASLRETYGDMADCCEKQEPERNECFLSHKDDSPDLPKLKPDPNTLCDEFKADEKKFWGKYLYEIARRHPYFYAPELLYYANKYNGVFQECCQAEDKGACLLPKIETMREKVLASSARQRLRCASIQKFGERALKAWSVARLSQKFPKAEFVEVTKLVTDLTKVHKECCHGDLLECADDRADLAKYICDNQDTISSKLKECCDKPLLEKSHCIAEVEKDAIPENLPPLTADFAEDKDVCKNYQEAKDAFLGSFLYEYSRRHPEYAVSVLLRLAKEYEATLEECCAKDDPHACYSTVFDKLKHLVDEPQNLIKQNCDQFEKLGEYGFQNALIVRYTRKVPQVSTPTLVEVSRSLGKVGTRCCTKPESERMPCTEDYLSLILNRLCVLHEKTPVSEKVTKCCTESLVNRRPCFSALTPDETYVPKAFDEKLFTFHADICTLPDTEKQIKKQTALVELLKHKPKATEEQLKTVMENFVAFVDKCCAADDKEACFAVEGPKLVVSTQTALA
Experiment: ELISA: plate coated with antigen, IgG added at 1 µg/ml, HRP goat anti-human IgG, A450

binding result | Binder
no binding (tested: 1 µg/ml) | B1
no binding (tested: 1 µg/ml) | B2
